Measured values as given in article doi:10.1101/2024.05.24.595734 (bioRxiv, 2024).

Assays:
[1] = target: PrfA^WT (Listeria monocytogenes virulence master regulator PrfA) (Listeria monocytogenes) (UniProt P22262); assay: ITC
[2] = target: the molecule itself; assay: crystal structure

tripeptide EVF
Kd [1]: 12 µM

B1: PrfA^WT (Listeria monocytogenes virulence master regulator PrfA) (natural protein)
chain: GAMNAQAEEFKKYLETNGIKPKQFHKKELIFNQWDPQEYCIFLYDGITKLTSISENGTIMNLQYYKGAFVIMSGFIDTETSVGYYNLEVISEQATAYVIKINELKELLSKNLTHFFYVFQTLQKQVSYSLAKFNDFSINGKLGSICGQLLILTYVYGKETPDGIKITLDNLTMQELGYSSGIAHSSAVSRIISKLKQEKVIVYKNSCFYVQNLDYLKRYAPKLDEWFYLACPATWGKLN
binding result [2]: binds

STLL [tetrapeptide STLL]
Kd [1]: 32 µM

RGLL [tetrapeptide RGLL]
Kd [1]: 145 µM

EVFL [tetrapeptide EVFL]
Kd [1]: 15 µM
